Reference: US20240376151A1, “STAPLED PEPTIDES AND METHODS THEREOF” (FOG PHARMACEUTICALS, INC., priority 2022, published 2024)

Target: T1, beta-catenin (Homo sapiens, UniProt P35222)
T1 construct: made in house; host or cells: E. coli BL21 (DE3) pLysS
T1 sequence (P35222 134-665): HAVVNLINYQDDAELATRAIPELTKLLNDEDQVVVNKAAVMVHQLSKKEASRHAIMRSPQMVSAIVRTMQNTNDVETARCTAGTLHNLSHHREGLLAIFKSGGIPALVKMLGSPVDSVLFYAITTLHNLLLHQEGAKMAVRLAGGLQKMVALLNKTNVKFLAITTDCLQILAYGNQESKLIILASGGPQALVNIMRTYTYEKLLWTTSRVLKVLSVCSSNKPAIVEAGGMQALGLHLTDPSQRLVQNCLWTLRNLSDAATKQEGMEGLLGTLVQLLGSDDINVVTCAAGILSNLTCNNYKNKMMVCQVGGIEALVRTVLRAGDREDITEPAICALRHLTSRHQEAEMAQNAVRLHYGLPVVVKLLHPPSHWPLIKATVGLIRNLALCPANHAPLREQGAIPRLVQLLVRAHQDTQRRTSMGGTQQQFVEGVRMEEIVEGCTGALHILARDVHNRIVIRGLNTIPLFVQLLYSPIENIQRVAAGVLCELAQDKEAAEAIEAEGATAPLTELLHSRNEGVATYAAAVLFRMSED
Experiment: Phage Library Screening with NGS, beta-catenin
Type: binding
Settings: for Target Concentration 10 (phage screen NGS readout): beta-catenin target concentration 10; for Target Concentration 10 (phage screen NGS readout) / Target Concentration 30 (phage screen NGS readout) / Target Concentration 100 (phage screen NGS readout) / Target Concentration 300 (phage screen NGS readout): no competitor; for Target Concentration 30 (phage screen NGS readout): beta-catenin target concentration 30; for Target Concentration 100 (phage screen NGS readout): beta-catenin target concentration 100; for Target Concentration 300 (phage screen NGS readout): beta-catenin target concentration 300; for Target Concentration 1000 (phage screen NGS readout): beta-catenin target concentration 1000

| Sequence | Target Concentration BLANK (phage screen NGS readout) (first column) | Target Concentration BLANK (phage screen NGS readout) (fourth column) | Target Concentration BLANK (phage screen NGS readout) (second column) | Target Concentration BLANK (phage screen NGS readout) (third column) | Target Concentration 10 (phage screen NGS readout) | Target Concentration 30 (phage screen NGS readout) | Target Concentration 100 (phage screen NGS readout) | Target Concentration 300 (phage screen NGS readout) | Target Concentration 1000 (phage screen NGS readout) (first 1000 column) | Target Concentration 1000 (phage screen NGS readout) (second 1000 column) |
| --- | --- | --- | --- | --- | --- | --- | --- | --- | --- | --- |
| DPAEVDCIMAAHICVWD | 0 | 0 | 0 | 0 | 0 | 0 | 31 | 42 | 40 | 51 |
| DPAEVECMLAAHVCRAF | 0 | 0 | 0 | 0 | 8 | 26 | 67 | 109 | 142 | 130 |
| DPAEWACEHAALTCWDQ | 1 | 0 | 4 | 0 | 6 | 24 | 148 | 448 | 431 | 449 |
| DPAEWDCMHAALICEVH | 0 | 0 | 0 | 0 | 0 | 10 | 55 | 54 | 67 | 89 |
| DPAEWICEHAALLCSVL | 0 | 0 | 0 | 0 | 0 | 0 | 11 | 33 | 33 | 27 |
| DPAEWQCEHAALLCEQQ | 0 | 6 | 2 | 0 | 78 | 201 | 907 | 1681 | 1740 | 1609 |
